# In article PMC3919030:
# pKd: −log10 of the molar value.
# Assays:
# [1] = target: Vps4p (Saccharomyces cerevisiae) (UniProt P52917); settings: cited from earlier work
# [2] = target: Acidianus hospitalis Vps4 (AhosVps4, wild type, full length) (Acidianus hospitalis); assay: SEC
# Chain of Vta1p (Q06263 whole entry): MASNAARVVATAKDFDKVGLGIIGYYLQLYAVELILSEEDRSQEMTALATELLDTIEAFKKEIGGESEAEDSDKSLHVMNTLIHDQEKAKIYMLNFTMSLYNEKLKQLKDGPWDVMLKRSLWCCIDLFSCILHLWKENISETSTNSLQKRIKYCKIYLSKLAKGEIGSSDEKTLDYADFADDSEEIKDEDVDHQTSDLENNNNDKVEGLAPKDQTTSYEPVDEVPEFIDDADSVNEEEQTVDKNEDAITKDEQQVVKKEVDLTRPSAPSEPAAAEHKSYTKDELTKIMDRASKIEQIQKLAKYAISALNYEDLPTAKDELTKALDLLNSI
# Chain of Vps4p (Saccharomyces cerevisiae) (P52917 whole entry): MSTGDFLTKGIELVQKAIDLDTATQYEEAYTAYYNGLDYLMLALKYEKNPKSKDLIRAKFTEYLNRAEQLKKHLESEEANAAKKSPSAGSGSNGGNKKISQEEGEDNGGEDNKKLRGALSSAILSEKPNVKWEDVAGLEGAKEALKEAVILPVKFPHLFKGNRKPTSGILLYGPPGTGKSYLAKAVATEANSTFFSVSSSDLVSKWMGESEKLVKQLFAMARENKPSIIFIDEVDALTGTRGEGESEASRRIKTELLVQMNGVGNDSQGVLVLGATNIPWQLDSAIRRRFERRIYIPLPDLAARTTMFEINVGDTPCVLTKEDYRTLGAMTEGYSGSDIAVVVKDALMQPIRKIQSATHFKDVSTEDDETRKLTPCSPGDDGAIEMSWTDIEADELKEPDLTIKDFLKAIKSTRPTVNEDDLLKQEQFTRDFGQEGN
Substance,pKd [1],stoichiometry N [2]
Vta1p (from UniProt Q06263),4.77,
"Acidianus hospitalis Vps4 (AhosVps4, wild type, full length) (enzyme)",,6
